Test results from the PETadex activity labels (doi:10.1074/jbc.m109.041285).
Numbering of substitutions follows the chain as printed.

B1: unnamed (protein)
chain: MSKVDLWQDATAQAELVRSGEISRTELLEATIAHVQAVNPEINAVIIPLFEKARRESELASGPFAGVPYLLKDLTVVSQGDINTSSIKGMKESGYRADHDAYFVQRMRAAGFVLLGKTNTPEMGNQVTTEPEAWGATRNPWNLGRSVGGSSGGSGAAVAAALSPVAHGNDAAGSVRIPASVCGVVGLKPTRGRISPGPLVTDSDNVAGAAHEGLFARSVRDIAALLDVVSGHRPGDTFCAPTASRPYAQGISENPGSLRVGVLTHNPVGDFALDPECAAAARGAAAALAALGHDVNDAYPEALGDRSFLKDYSTIGDVAIAREIERNGELIGRPLTEDDVEWTSWEMVKRADQVTGRAFAACVDELRYYAGKVERWWEAGWDLLILPTVTRQTPEIGELMLAKGTDLEGRQSAFISGSLQMLAFTVPFNVSGQPAISLPIGMSSDGMPIGVQIVAAYGREDLLLQVAAQLEGALPWVARRPQLLNPSRKIPAA
B2: unnamed (protein)
chain: B1 chain with G316C
B3: unnamed (protein)
chain: B1 chain with G316A
B4: unnamed (protein)
chain: B1 chain with N125A, G316C
B5: unnamed (protein)
chain: B1 chain with G316D
B6: unnamed (protein)
chain: B1 chain with G316S

Substrate: Acd (paper fig)
Conditions: 30 °C

Protein | Km [mM] | kcat [s⁻¹] | kcat/Km [M⁻¹ s⁻¹]
B1 | 3.66 | 9.15 | 2500
B2 | 3.51 | 4.97 | 1420
B3 | 0.85 | 0.71 | 835
B4 | 13.2 | 1.12 | 84.8
B5 | 19 | 0.14 | 7.37
B6 | 1.8 | 4.83 | 2680
